For five substances, Kd and IC50 of inhibition of ADP-induced platelet aggregation in human platelet-rich plasma (blocks fibrinogen binding to αIIbβ3) results are on record in publication PMC2880590.

Assay [1] concerns the target vicrostatin (VCN) (Agkistrodon contortrix contortrix (southern copperhead venom gland cDNA library) | not stated). The assay can be described thus: fluorescence polarisation. For orientation: In fluorescence polarisation assays a small probe gives low polarisation when free and higher when bound to something large.
In assay [2] the target is contortrostatin (CN), native (Agkistrodon contortrix contortrix). The assay can be described thus: fluorescence polarisation.
The target in assay [3] is vicrostatin (VCN) (Agkistrodon contortrix contortrix (southern copperhead venom gland cDNA library) | not stated). The experiment in a line: fluorescence polarisation; differing concentrations of purified soluble integrin with a constant amount of FITC-labelled CN or VCN, in solution, steady state; Scatchard analysis and non-linear curve fit.
Assay [4] addresses contortrostatin (CN), native (Agkistrodon contortrix contortrix). Described as above.
For assay [5], the target named is activated platelet integrin αIIbβ3 (human (endogenous in platelets)) (UniProt P08514).
Sequence of UniProt P08514 (P08514 32-1039, chain 1 of 2): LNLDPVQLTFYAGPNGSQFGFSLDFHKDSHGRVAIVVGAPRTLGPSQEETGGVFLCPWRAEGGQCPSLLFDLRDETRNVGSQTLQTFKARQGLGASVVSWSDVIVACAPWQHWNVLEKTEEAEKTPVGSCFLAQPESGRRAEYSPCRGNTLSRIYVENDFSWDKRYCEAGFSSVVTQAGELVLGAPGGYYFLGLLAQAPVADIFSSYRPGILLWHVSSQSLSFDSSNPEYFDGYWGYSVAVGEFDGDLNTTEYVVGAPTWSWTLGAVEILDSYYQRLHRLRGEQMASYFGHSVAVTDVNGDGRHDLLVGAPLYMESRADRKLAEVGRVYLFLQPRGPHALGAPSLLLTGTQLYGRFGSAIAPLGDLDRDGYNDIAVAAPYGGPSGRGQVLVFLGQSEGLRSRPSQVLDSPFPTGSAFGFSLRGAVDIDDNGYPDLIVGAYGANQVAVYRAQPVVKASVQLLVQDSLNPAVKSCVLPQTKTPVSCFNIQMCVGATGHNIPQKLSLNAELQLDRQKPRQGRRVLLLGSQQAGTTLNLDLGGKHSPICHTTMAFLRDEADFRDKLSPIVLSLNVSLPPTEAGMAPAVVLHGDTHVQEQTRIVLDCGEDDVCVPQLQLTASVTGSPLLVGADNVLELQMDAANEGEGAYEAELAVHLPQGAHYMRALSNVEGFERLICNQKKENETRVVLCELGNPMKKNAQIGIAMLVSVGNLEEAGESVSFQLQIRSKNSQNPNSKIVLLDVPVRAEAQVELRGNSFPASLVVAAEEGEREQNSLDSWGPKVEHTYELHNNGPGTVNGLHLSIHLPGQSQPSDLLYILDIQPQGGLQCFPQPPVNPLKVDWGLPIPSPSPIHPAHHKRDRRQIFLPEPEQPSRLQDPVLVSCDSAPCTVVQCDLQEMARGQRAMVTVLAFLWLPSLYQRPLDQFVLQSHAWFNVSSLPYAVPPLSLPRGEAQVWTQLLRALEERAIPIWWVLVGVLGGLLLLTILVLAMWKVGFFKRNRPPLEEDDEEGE
Sequence of UniProt P08514 (P05106 27-788, chain 2 of 2, further chain): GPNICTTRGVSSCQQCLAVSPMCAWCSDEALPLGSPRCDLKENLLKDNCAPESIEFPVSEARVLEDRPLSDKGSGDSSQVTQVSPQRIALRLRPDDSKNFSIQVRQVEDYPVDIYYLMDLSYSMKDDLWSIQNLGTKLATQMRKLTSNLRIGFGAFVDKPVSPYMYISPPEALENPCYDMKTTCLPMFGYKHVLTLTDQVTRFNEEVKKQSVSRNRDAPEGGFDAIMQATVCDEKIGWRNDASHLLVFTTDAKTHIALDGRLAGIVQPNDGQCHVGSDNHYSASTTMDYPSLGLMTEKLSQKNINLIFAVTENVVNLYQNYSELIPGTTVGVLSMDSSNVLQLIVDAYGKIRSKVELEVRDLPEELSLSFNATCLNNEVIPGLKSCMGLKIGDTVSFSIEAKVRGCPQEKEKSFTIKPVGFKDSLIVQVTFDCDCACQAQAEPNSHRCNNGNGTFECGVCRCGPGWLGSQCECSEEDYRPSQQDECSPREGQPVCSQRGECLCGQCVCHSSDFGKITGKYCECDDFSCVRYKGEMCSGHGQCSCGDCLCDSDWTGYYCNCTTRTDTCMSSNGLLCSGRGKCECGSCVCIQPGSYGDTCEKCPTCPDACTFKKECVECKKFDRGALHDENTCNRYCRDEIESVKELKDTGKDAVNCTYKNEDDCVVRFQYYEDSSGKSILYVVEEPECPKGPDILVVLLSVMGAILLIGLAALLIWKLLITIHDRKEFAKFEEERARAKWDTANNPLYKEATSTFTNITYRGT
The target is the same in assay [6]. The source holds these as a separate data set.

Where two headings read alike, the source gives them in different places.

In general, Kd refers to a measure of binding affinity in units of concentration. A low value points to tighter binding. Consider “purified soluble integrin αvβ5 (from UniProt P06756 31-1048; P18084 24-719) (receptor)”, for which the dissociation constant Kd was 0.0412 µM in assay [1] and 0.0195 µM in assay [2].

For the substance “purified soluble integrin αvβ3 (from UniProt P06756 31-1048; P05106 27-718) (receptor)”, the equilibrium dissociation constant (Kd) in assay [3] came to 0.0074 µM; in assay [4], 0.0066 µM.

“contortrostatin (CN), native (natural protein)”: the IC50 of inhibition of ADP-induced platelet aggregation in human platelet-rich plasma (blocks fibrinogen binding to αIIbβ3) in assay [5] is 0.06 µM.

Take vicrostatin (VCN) (ligand): in assay [6], the IC50 of inhibition of ADP-induced platelet aggregation in human platelet-rich plasma (blocks fibrinogen binding to αIIbβ3) stood at 0.06 µM.

For the substance “soluble recombinant integrin α5β1 (from UniProt P08648 42-1049; P05556 21-728) (receptor)”, the Kd in assay [1] turned out to be 0.0152 µM; in assay [2] it was 0.191 µM.
